Test results from patent US20260098092A1 (CHULALONGKORN UNIVERSITY, published 2026).

Molecular target: human PD-1 on PD-1-expressing Jurkat effector cells (human, UniProt Q15116 25-288)
Assay: cell-based or functional assay

Sequence of human PD-1 on PD-1-expressing Jurkat effector cells (Q15116 25-288): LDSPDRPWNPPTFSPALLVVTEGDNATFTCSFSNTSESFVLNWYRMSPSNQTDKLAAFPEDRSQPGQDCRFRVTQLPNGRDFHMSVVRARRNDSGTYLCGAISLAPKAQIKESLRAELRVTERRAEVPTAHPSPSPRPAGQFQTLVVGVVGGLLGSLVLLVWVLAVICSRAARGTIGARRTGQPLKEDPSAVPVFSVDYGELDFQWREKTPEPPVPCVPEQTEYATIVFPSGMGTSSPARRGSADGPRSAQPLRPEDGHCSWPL

Row | PD-1/PD-L1 blockade bioassay, IC50 [µg/mL] | Binder
1 | 0.846 | mCUSB0126 (antibody, V domains shown, Mouse monoclonal antibody purified from hybridoma) VH: VKLVESGGDLVKPGGSLKLSCAASGFPFSSYLMSWVRQTPEKRLEWVAAISGGGRDTYYPDNVKGRFTISRDNARNILYLQMSSLRSEDTAVYYCATRGSYAMDYWGQGTSVTVSS VL: DIQMTQSPASQSASLGESVTITCLASQTIGTWLAWYQQKPGKSPQILIYAATNLADGVPSRFSGSGSGTKFSFKISSLQAEDFVSYYCQQLYSIPWTFGGGTKLEIK
2 | 0.843 | mCUSB0103 (antibody, V domains shown, Mouse monoclonal antibody purified from hybridoma) VH: DVKLVESGGGLVKPGGSLKLSCAASGFTFSSYTMSWVRQTPEKRLEWVAAISGGGSYTYYADSVKGRFTISRDNAKNTLSLQMSSLKSEDTAMYFCTSPYDFAMDYWGQGTSVTVSS VL: DIQMTQTTSSLSASLGDRVTISCRASQDITNYLNWYQQKPDGSVKLLIYYTSRLHSGVPSRFRGSGSGTDYSLTISNLEQEDIATYFCQQGNTLPWTFGGGTKLEIK

Molecular target: T1, recombinant human PD-1 His-tag protein (R&D Systems) (human, UniProt Q15116 25-167)
T1 construct: Bought reagent; Used for the ELISA (coated) and for SPR (analyte); also called PD-1 protein; human PD-1 protein; not shown: His-tag
Assay: ELISA, PD-1 His-tag coated on plate, anti-mouse IgG Fc-HRP detection
Procedure: ELISA technique was used to select hybridoma mini-pools producing anti-PD-1 antibodies using the following procedure. MaxiSorp ELISA plate was coated with PD-1 His-tag (R&D System) in PBS buffer (10 ng/100 μL/well) at 4° C. overnight. […] The culture supernatant of each mini-pool (100 μL) was added to the plate then incubated for 1 hour at 37° C. After washing, the plate was probed with goat anti-mouse IgG Fcγ-HRP (Jackson Immuno Research) diluted 1:8,000 in PBST (100 μL/well) and incubated for 1 hour at 37° C. […] 1 M H₂SO₄ (50 μL/well) was used to stop the reaction. […] Hybridoma mini-pools with absorbance values of more than 1.0 were selected for further screening.
The purified antibodies were 2-fold serial diluted for eleven rounds starting from 2 μg/mL until reaching the final concentration of 0.977 ng/mL. The PD-1 binding activity of purified antibodies was evaluated by ELISA following the procedure mentioned in Example 2. The half-maximal effective concentration (EC₅₀) was calculated using GraphPad Prism® software.

T1 sequence (Q15116 25-167 limits assumed): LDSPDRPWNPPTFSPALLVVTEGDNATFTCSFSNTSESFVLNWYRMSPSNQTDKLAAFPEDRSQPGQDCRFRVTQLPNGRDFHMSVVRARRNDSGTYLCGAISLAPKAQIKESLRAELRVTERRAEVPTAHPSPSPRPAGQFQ

Row | EC50 [µg/mL] | Binder
3 | 0.0442 | mCUSB0126 (antibody, V domains shown, Mouse monoclonal antibody purified from hybridoma) VH: VKLVESGGDLVKPGGSLKLSCAASGFPFSSYLMSWVRQTPEKRLEWVAAISGGGRDTYYPDNVKGRFTISRDNARNILYLQMSSLRSEDTAVYYCATRGSYAMDYWGQGTSVTVSS VL: DIQMTQSPASQSASLGESVTITCLASQTIGTWLAWYQQKPGKSPQILIYAATNLADGVPSRFSGSGSGTKFSFKISSLQAEDFVSYYCQQLYSIPWTFGGGTKLEIK
4 | 0.0494 | mCUSB0103 (antibody, V domains shown, Mouse monoclonal antibody purified from hybridoma) VH: DVKLVESGGGLVKPGGSLKLSCAASGFTFSSYTMSWVRQTPEKRLEWVAAISGGGSYTYYADSVKGRFTISRDNAKNTLSLQMSSLKSEDTAMYFCTSPYDFAMDYWGQGTSVTVSS VL: DIQMTQTTSSLSASLGDRVTISCRASQDITNYLNWYQQKPDGSVKLLIYYTSRLHSGVPSRFRGSGSGTDYSLTISNLEQEDIATYFCQQGNTLPWTFGGGTKLEIK

Molecular target: T1, recombinant human PD-1 His-tag protein …
Assay: binding kinetics (method not described at the table; presumably SPR as in Example 8)

Row | Kd [nM] | koff [s⁻¹] | kon [M⁻¹ s⁻¹] | Binder
5 | 0.0289 | 7.39e-05 | 2.56e+06 | Modified Seq17 (modified zCUSB0136.8 antibody) (antibody, V domains shown) VH: QVQLQESGPGLVKPSETLSLTCTVSGFSLTVYDIIWIRQSPGKGLEWLGVIWTGGDTTYNSAFMSRLTISKDTSKNQISLKMSSLTAADTAVYYCARDWAYWGQGTLVTVSS VL: DIVLTQSPDSLAVSLGERATISCRASESVDNYGNSFIQWYQQKPGQPPKLLIYFASYLQSGVPDRFSGSGSGTDFTLTISSVQAEDVATYYCHQNNEDPFTFGGGTKLEIK
6 | 0.0243 | 8.47e-05 | 3.49e+06 | Modified Seq13 (modified zCUSB0136.8 antibody) (antibody, V domains shown) VH: QVQLQESGPGLVKPSETLSLTCTVSGFSLTTYDIIWIRQSPGKGLEWLGVIWTGGDTTYNSAFMSRLTISKDTSKNQISLKMSSLTAADTAVYYCARDWAYWGQGTLVTVSS VL: DIVLTQSPDSLAVSLGERATISCRASESVDNYGNSFIQWYQQKPGQPPKLLIYFASYLQSGVPDRFSGSGSGTDFTLTISSVQAEDVATYYCHQNNEDPFTFGGGTKLEIK
7 | 0.0266 | 9.31e-05 | 3.5e+06 | Modified Seq16 (modified zCUSB0136.8 antibody) (antibody, V domains shown) VH: QVQLQESGPGLVKPSETLSLTCTVSGFSLTTYDIIWIRQSPGKGLEWLGVIWTGGDTTYNSAFMSRLTISKDTSKNQISLKMSSLTAADTAVYYCARDWAYWGQGTLVTVSS VL: DIVLTQSPDSLAVSLGERATISCRASESVDNYGNSFIQWYQQKPGQPPKLLIYFASYLQSGVPDRFSGSGSGTDFTLTISSVQAEDVATYYCHQNNEDPFTFGGGTKLEIK
8 | 0.057 | 0.000134 | 2.36e+06 | Modified Seq22 (modified zCUSB0136.8 antibody) (antibody, V domains shown) VH: QVQLQESGPGLVKPSETLSLTCTVSGFSLTTYDIIWIRQSPGKGLEWLGVIWTGGDTTYNSAFMSRLTISKDTSKNQISLKMSSLTAADTAVYYCARDWAYWGQGTLVTVSS VL: DIVLTQSPDSLAVSLGERATISCRASESVDNWGNSFIQWYQQKPGQPPKLLIYFASNLQSGVPDRFSGSGSGTDFTLTISSVQAEDVATYYCHQNNEDPFTFGGGTKLEIK
9 | 0.0664 | 0.000145 | 2.18e+06 | Modified Seq25 (modified zCUSB0136.8 antibody) (antibody, V domains shown) VH: QVQLQESGPGLVKPSETLSLTCTVSGFSLTTYDIIWIRQSPGKGLEWLGVIWTGGDTTYNSAFMSRLTISKDTSKNQISLKMSSLTAADTAVYYCARDWAYWGQGTLVTVSS VL: DIVLTQSPDSLAVSLGERATISCRASESVDNYGNSFIQWYQQKPGQPPKLLIYFASHLQSGVPDRFSGSGSGTDFTLTISSVQAEDVATYYCHQNNEDPFTFGGGTKLEIK
10 | 0.0412 | 0.000104 | 2.52e+06 | Modified Seq21 (modified zCUSB0136.8 antibody) (antibody, V domains shown) VH: QVQLQESGPGLVKPSETLSLTCTVSGFSLTTYDIIWIRQSPGKGLEWLGVIWTGGDTTYNSAFMSRLTISKDTSKNQISLKMSSLTAADTAVYYCARDWAYWGQGTLVTVSS VL: DIVLTQSPDSLAVSLGERATISCRASESVDNWGNSFIQWYQQKPGQPPKLLIYFASNLQSGVPDRFSGSGSGTDFTLTISSVQAEDVATYYCHQNNEDPFTFGGGTKLEIK
11 | 0.0319 | 8.7e-05 | 2.73e+06 | Modified Seq20 (modified zCUSB0136.8 antibody) (antibody, V domains shown) VH: QVQLQESGPGLVKPSETLSLTCTVSGFSLTVYDIIWIRQSPGKGLEWLGVIWTGGDTTYNSAFMSRLTISKDTSKNQISLKMSSLTAADTAVYYCARDWIYWGQGTLVTVSS VL: DIVLTQSPDSLAVSLGERATISCRASESVDNYGNSFIQWYQQKPGQPPKLLIYFASHLQSGVPDRFSGSGSGTDFTLTISSVQAEDVATYYCHQNNEDPFTFGGGTKLEIK
12 | 0.0315 | 7.97e-05 | 2.53e+06 | Modified Seq19 (modified zCUSB0136.8 antibody) (antibody, V domains shown) VH: QVQLQESGPGLVKPSETLSLTCTVSGFSLTTYDIIWIRQSPGKGLEWLGVIWTGGDTTYNSAFMSRLTISKDTSKNQISLKMSSLTAADTAVYYCARDWAYWGQGTLVTVSS VL: DIVLTQSPDSLAVSLGERATISCRASESVDNWGNSFIQWYQQKPGQPPKLLIYFASNLQSGVPDRFSGSGSGTDFTLTISSVQAEDVATYYCHQNNEDPFTFGGGTKLEIK
13 | 0.0582 | 0.000288 | 4.96e+06 | Modified Seq23 (modified zCUSB0136.8 antibody) (antibody, V domains shown) VH: QVQLQESGPGLVKPSETLSLTCTVSGFSLTVYDIIWIRQSPGKGLEWLGVIWTGGDTNYNSAFMSRLTISKDTSKNQISLKMSSLTAADTAVYYCARDWAYWGQGTLVTVSS VL: DIVLTQSPDSLAVSLGERATISCRASESVDNWGNSFIQWYQQKPGQPPKLLIYFASYLQSGVPDRFSGSGSGTDFTLTISSVQAEDVATYYCHQNNEDPFTFGGGTKLEIK
14 | 0.0307 | 7.82e-05 | 2.54e+06 | Modified Seq18 (modified zCUSB0136.8 antibody) (antibody, V domains shown) VH: QVQLQESGPGLVKPSETLSLTCTVSGFSLTTYDIIWIRQSPGKGLEWLGVIWTGGDTTYNSAFMSRLTISKDTSKNQISLKMSSLTAADTAVYYCARDWAYWGQGTLVTVSS VL: DIVLTQSPDSLAVSLGERATISCRASESVDNWGNSFIQWYQQKPGQPPKLLIYFASQLQSGVPDRFSGSGSGTDFTLTISSVQAEDVATYYCHQNNEDPFTFGGGTKLEIK
15 | 0.0618 | 0.000112 | 1.81e+06 | Modified Seq24 (modified zCUSB0136.8 antibody) (antibody, V domains shown) VH: QVQLQESGPGLVKPSETLSLTCTVSGFSLTVYDIIWIRQSPGKGLEWLGVIWTGGDTTYNSAFMSRLTISKDTSKNQISLKMSSLTAADTAVYYCARDWAYWGQGTLVTVSS VL: DIVLTQSPDSLAVSLGERATISCRASESVDNYGNSFIQWYQQKPGQPPKLLIYFASQLQSGVPDRFSGSGSGTDFTLTISSVQAEDVATYYCHQNNEDPFTFGGGTKLEIK

Molecular target: T1, recombinant human PD-1 His-tag protein …
Assay: SPR, Biacore T200, as in Example 8 (antibody on Protein G chip, PD-1 His-tag injected)
Procedure: The Biacore T200 instrument, equipped with a Protein G sensor chip (GE Healthcare), was used to determine the binding kinetics between chimeric anti-PD-1 antibodies and PD-1 protein. Each purified chimeric anti-PD-1 antibody (1 μg/mL) was injected into the chip with a flow rate of 30 μL/min for 60 sec. […] The HBS-EP+buffer (GE Healthcare) was used as a buffer blank and diluent. The association constant (kₒₙ), dissociation constant (koff), and equilibrium constant (KD) values were calculated using Biacore T200 evaluation software (version 3.1) with a 1:1 Langmuir binding model curve fitting.

Row | Kd [nM] | koff [s⁻¹] | kon [M⁻¹ s⁻¹] | Binder
16 | 0.0159 | 7.02e-05 | 4.42e+06 | zCUSB0136.8-4 (antibody, V domains shown, also called CUSB0136-BMVH.3d with CUSB0136-BMVL.2b) VH: QVQLQESGPGLVKPSETLSLTCTVSGFSLTVYDIIWIRQSPGKGLEWLGVIWTGGDTTYNSAFMSRLTISKDTSKNQISLKMSSLTAADTAVYYCARDWMYWGQGTLVTVSS VL: DIVLTQSPDSLAVSLGERATISCRASESVDNYGNSFIQWYQQKPGQPPKLLIYFASYLQSGVPDRFSGSGSGTDFTLTISSVQAEDVATYYCHQNNEDPFTFGGGTKLEIK
17 | 0.0155 | 7.27e-05 | 4.68e+06 | zCUSB0136.8-2 (antibody, V domains shown, also called CUSB0136-BMVH.3b with CUSB0136-BMVL.2b) VH: QVQLQESGPGLVKPSETLSLTCTVSGFSLTVYDIIWIRQSPGKGLEWLGVIWTGGDTTYNSAFMSRLTISKDTSKNQISLKMSSLTAADTAVYYCARDWIYWGQGTLVTVSS VL: DIVLTQSPDSLAVSLGERATISCRASESVDNYGNSFIQWYQQKPGQPPKLLIYFASYLQSGVPDRFSGSGSGTDFTLTISSVQAEDVATYYCHQNNEDPFTFGGGTKLEIK
18 | 0.0237 | 0.000142 | 6e+06 | zCUSB0136.8-1 (antibody, V domains shown, also called CUSB0136-BMVH.3a with CUSB0136-BMVL.2a) VH: QVQLQESGPGLVKPSETLSLTCTVSGFSLTTYDIIWIRQSPGKGLEWLGVIWTGGDTWYNSAFMSRLTISKDTSKNQISLKMSSLTAADTAVYYCARDWAYWGQGTLVTVSS VL: DIVLTQSPDSLAVSLGERATISCRASESVDNWGNSFIQWYQQKPGQPPKLLIYFASYLQSGVPDRFSGSGSGTDFTLTISSVQAEDVATYYCHQNNEDPFTFGGGTKLEIK
19 | 0.0208 | 9.31e-05 | 4.48e+06 | zCUSB0136.8-3 (antibody, V domains shown, also called CUSB0136-BMVH.3c with CUSB0136-BMVL.2b) VH: QVQLQESGPGLVKPSETLSLTCTVSGFSLTVYDIIWIRQSPGKGLEWLGVIWTGGDTTYNSAFMSRLTISKDTSKNQISLKMSSLTAADTAVYYCARDWAYWGQGTLVTVSS VL: DIVLTQSPDSLAVSLGERATISCRASESVDNYGNSFIQWYQQKPGQPPKLLIYFASYLQSGVPDRFSGSGSGTDFTLTISSVQAEDVATYYCHQNNEDPFTFGGGTKLEIK
